Assay [1] deals with T1, human CD39 (NTPDase1, ENTPD1), membrane-bound, on cells (human, UniProt P49961 1-510).
T1 construct: Expressed on CHO cells, Hek-293T cells (wild type) or endogenous on Ramos cells; also called huCD39; CHO-huCD39
T1 sequence: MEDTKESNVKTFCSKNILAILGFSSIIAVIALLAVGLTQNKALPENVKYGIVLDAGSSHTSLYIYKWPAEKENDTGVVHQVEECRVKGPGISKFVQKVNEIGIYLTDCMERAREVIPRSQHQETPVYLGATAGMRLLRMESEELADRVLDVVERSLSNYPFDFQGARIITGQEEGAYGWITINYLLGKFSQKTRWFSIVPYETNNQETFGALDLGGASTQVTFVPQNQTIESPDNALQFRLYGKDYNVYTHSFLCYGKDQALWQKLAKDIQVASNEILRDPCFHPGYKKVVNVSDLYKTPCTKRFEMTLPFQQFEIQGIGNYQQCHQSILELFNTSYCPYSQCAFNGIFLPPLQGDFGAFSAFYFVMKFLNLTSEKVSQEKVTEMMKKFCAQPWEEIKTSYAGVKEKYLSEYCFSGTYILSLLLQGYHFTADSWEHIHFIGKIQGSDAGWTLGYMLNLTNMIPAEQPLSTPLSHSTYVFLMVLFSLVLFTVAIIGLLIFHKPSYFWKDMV
Kind of assay: flow cytometry on Ramos lymphoma cells, second set of experiments. The method, then: (§1) Cells were incubated with various concentration of unlabeled anti-CD39 antibody from 30 μg/ml to 5×10⁻⁴ μg/ml, for 30 minutes at 4° C. After washes, cells were incubated with Goat anti-mouse H+L labeled secondary antibody for 30 min at 4° C.

Assay [2] deals with T2, Human CD39-L2, also known as NTPDase6 or ENTPD6 (human, UniProt O75354 61-484, limits assumed).
T2 construct: Recombinant protein coated in ELISA
T2 sequence: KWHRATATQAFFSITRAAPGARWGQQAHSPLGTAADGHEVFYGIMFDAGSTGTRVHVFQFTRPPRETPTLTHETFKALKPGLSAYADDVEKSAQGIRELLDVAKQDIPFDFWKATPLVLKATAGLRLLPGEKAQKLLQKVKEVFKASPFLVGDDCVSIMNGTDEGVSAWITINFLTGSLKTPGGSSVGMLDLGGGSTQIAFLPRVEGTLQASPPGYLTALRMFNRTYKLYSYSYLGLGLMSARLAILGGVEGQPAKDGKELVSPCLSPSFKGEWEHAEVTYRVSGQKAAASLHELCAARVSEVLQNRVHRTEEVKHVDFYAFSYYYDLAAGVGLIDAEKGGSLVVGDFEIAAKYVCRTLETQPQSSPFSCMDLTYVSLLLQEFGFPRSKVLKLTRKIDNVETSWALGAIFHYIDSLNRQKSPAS
Kind of assay: ELISA on coated recombinant human CD39-L2 (panel huCD39 L2). As to the method: Wells were washed in TBS Tween 20, and further saturated 2H at RT in TBS Blocking buffer. Dose range concentration of primary antibody was incubated in TBS blocking buffer for 2 h at RT. Wells were washed in TBS Tween 20. […] Optical density was measured on Enspire™ at OD=450.
Background: In an ELISA, binding on a coated surface is turned into a signal by an enzyme label.

In assay [3] the target is T3, cynomolgus (macaca fascicularis) CD39 on CHO cells (cynomolgus (macaca fascicularis), UniProt A0A7N9DGH8 1-510).
T3 construct: whole, on cells; also called CHO-cyCD39; cynomolgus CD39
T3 sequence: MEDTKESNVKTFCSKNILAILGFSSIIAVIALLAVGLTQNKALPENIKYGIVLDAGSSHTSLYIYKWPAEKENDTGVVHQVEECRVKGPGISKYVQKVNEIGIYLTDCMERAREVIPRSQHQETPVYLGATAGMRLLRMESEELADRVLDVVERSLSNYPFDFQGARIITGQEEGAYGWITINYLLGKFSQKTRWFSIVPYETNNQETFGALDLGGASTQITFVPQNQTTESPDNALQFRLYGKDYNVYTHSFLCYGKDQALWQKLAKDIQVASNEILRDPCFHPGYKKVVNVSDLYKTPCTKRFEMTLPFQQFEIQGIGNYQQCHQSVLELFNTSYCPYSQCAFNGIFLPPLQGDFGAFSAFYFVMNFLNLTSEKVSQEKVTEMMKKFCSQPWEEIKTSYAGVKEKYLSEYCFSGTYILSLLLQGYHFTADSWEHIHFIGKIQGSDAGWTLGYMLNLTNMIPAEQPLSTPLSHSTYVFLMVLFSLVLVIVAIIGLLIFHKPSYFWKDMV
Kind of assay: flow cytometry titration on CHO cells expressing cynomolgus CD39 (panel CHO-cyCD39). As to the method:
as §1
(Flow cytometry measures light scatter and fluorescence of single cells or particles in a stream.)

B1: antibody I-394 (antibody, human IgG1, kappa, V domains shown)
VH: EVQLQQSGPELVKPGASVKMSCKASGYTFTDYNMHWVKQSHGRTLEWIGYIVPLNGGSTFNQKFKGRATLTVNTSSRTAYMELRSLTSEDSAAYYCARGGTRFAYWGQGTLVTVSA
VL: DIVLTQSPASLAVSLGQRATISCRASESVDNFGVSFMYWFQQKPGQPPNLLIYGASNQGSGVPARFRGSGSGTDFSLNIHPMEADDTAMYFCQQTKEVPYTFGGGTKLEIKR
In the case of B1, the EC50 (as a rule, the concentration giving half of the maximal effect) in assay [1] came out at 0.19 µg/mL. The binding result in assay [2] was “no binding (tested: about 50 µg/ml)”. The EC50 (read off the curve) – broadly, the midpoint of the concentration-response curve – in assay [3] was roughly 0.4 µg/mL.

These data come from patent publication US20190218308A1 (INNATE PHARMA, published 2019).
